In the nanobody polyreactivity screen of Harvey et al. (2022):

Test: yeast display, Sf9 membrane polyspecificity reagent, FACS + sequencing; frameworks hold sequencing errors
Method in brief: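 Sorting gates, low and high (top ~1%), were placed on anti-HA fluorescence to track expression and on streptavidin fluorescence to track reagent binding. A clone's polyreactivity label is taken from the gate it came out of. The reagent was 10% biotinylated, detergent-solubilized Sf9 membrane, applied for 1 hour at 4 °C to galactose-induced yeast display cells.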

Sequence | polyreactivity (PSR sort gate)
QVQLVESGGGLDQAGGSLRLSCAASGRIFSRYTMGWYRQAPGKERELVAAISSGGGSNYADSVKGRFTISRDNAKNSVYLQMTSLNPEDTEVYYCNARSWLSRGYGYWGQGTQVTVSS | high polyreactivity
QVQLVESGGGLDQAGGSLRLSCAASGRIIYWYAMGWFRQAPGKERELVAAINNGGGTNYADSVKGRFTISRDNAKHTVYLQMNSLKPEDTAVYYCAADYVFYSRFFTEVYWGQGTQVTVSS | low polyreactivity
QVQLVESGGGLDQAGGSLRLSCAASGRILGYNALGWYRQAPGKERELVAAIRTGTTNYADSVKGRFTISRDNAKNTVYLQMNSLKPEDTAVYYCAALRPYNEGSSHLFRYDYWGQGTQVTVSS | low polyreactivity
QVQLVESGGGLDQAGGSLRLSCAASGRIVVGYAMGWYRQAPGKERELVAAINRSGSSTYYADSVKGRFTISRDNGKITVYLQMNSLKPEDTAVYYCNARSGNRYGPRYDYWGQGTQVTVSS | high polyreactivity
QVQLVESGGGLDQAGGSLRLSCAASGRTFFYNAMGWYRQAPGKESEWDAAISYSGGSTYYADSVKGRFTISRDNAKNTVYLQMNSLKPEDTAVYYCAARDKTRSVRRTGMDYWGQGTQVTVSS | high polyreactivity
QVQLVESGGGLDQAGGSLRLSCAASGRTFGWYAMGWYRQAPGTERELVAVISSSGGRTYYADSVKGRFTISRDNAKNTVYLQLNSLKPEDTAVYYCATPNGSKRYSYYYWGQGTQVTVSS | high polyreactivity
QVQLVESGGGLDQAGGSLRLSCAASGRTFRNYVMGWYRQAPGKERELVAAISRSGGSTYYADSVKGRFTISRDNAKNSVYLQMNSLKPEDTAVYYCNTVTTYDVEYWGQGTQVTVSS | high polyreactivity
QVQLVESGGGLDQAGGSLRLSCAASGRTFSWYAMGWYRQAPGKERELVAAITYSGGNTYYAHSVKGRFTISRDNAKITVYLLRNSLKPDDNAVYYCAAPSLIAKYEYWGQGTQVTVSS | high polyreactivity
QVQLVESGGGLDQAGGSLRLSCAASGSIFAYAMPLYRQAPGKERELVASISTSTDITYADSVKGRFTISRDNAMNSVYFLMNSLKPEDTAVYYCAATYWQWWGWYDYWGEGTQVTVSS | high polyreactivity
QVQLVESGGGLDQAGGSLRLSCAASGSIFGNNAMGWYRQAPGKERELVASISSSSGSTNYADSVKGRFTISRDNAKNTVYVQMNSLKPEDTAVYYCAARWRYWSRKYDYWGQGTQVTVSS | high polyreactivity
QVQLVESGGGLDQAGGSLRLSCAASGSIFSTYAMGWYRQAPGKERELVAAISRNGGSTSYADSVKGRFTISRDNAKNTVYLQMNILKPEDTAVYYCNAGVYWPGEFDYWGQGTQVTVSS | high polyreactivity
QVQLVESGGGLDQAGGSLRLSCAASGSIFTQYAMGWYRQAPGKERELVAAITSGGSTYADSVKGRFTISRDNAKNTVYLQMNSLKPEDTAVYYCATPYSYRGVTFNYWGQGTLVTVSS | low polyreactivity
QVQLVESGGGLDQAGGSLRLSCAASGSIFWSYDRGWYRQAPGKETELVATITSGDSTYYADSVKGRFTISRDNEKNTVYLPMKSLKPEDTAVYYCAAGTFYRPTYCHREYDYWGQGTQVTVSS | low polyreactivity
QVQLVESGGGLDQAGGSLRLSCAASGSIFWYNTMGWYRQAPGKERELVAAITFSGGSTYYADSVKGRFTISRDNAKNTVYLQMNSLKPEDTAVYYCAAVFYSAVGYFYWGQGTQVTVSS | low polyreactivity
QVQLVESGGGLDQAGGSLRLSCAASGSISAIYTMGWYRQAPGKERELVAAISSGDSTNYADSVKGRFTISRDNAKNTVYLQMNSLKPEDTAVYYCATERSHLATGQGYYYVQTFYYWGQGTEVTVSS | low polyreactivity
QVQLVESGGGLDQAGGSLRLSCAASGSIYWNNAMGWYRQAPRKERELDAAISKSGTRTYYADSVKGRFTISRDNAKNTVYLQMNSLKPEDTAVYYCNALLSDSGTYAGDDYWGQGTQVTVSS | high polyreactivity
QVQLVESGGGLDQAGGSLRLSCAASGSTFFKYAMGWYRQAPAKERELVAAISQNGGSTYYADSVKGRFTISRDNAKNTVYFQMNSLNPEDTAVYYCATGPNSYDYWGQGNQVTVSS | high polyreactivity
QVQLVESGGGLDQAGGSLRLSCAASGSTFTRNAMRWYRQAPGKERELVATISSGGSTNYADSVKGRFTISRDNAKNTVYLQMNSLKPEDTAVYYCAKRSLYSYYYWGQGTQVTVSS | high polyreactivity
QVQLVESGGGLDQAGGSLRLSCAASGSTFYYNAMGWYRQAPGKERELVAAISSDGSTNYADSVKGRFTISRDNAKNTVYLQMNSLKPEDTAVYYCAKKDFYFAPSPGYYRSRDYWGQGTQVTVSS | low polyreactivity
QVQLVESGGGLDQAGGSLRLSCAASGTTFRNNAMGWYRQAPGKERELVAVITGDGGSTYYADSVKGRFTISRDNAKNTVYLEMNSLKPEDTAVYYCNARSIRYSRFRQRFGYWGQGTQVTVSS | low polyreactivity
QVQLVESGGGLDQAGGSLRLSCAASGVNAMGWYRQAPGKEREFVAAITSIGGSTYYADSVKGRFTISRDNAKNTVYLQMNRLKPEDTAVYYCNPDSGPVKVSPLYESWGQGTQVTVSS | low polyreactivity
QVQLVESGGGLDQAGGSLRLSCAASRSTFPHYAMGWYRQAPGKERELVAAIYSTGGSTYYADSVKGRFTISRDNAKNTVYLQMNSLKPEDTAVYYCAASRLYWGQGNQVTVSS | high polyreactivity

Sequence | polyreactivity (PSR sort gate)
QVQLVESGGGLDQAGGSLRLSCAGSGSIFTSYAMGWDIQAPGKERELVAAISQSGGDTYYADSVKGRFTISRDNAKNTVYLQMNSLKPEDTAVYYCAASVWYYPMDYWGQGTQVTVSS | low polyreactivity
QVQLVESGGGLDQAGGSLRLSGAASGRILWYNAMGWYRQAPGKERELVAAISWTGGSTYYADSVKGRFTISRDNAKNTVYLQMNSLKPEDTAVYYCNVDTPYTQGFDQRQGYTFDYWGQGTQVTVSS | low polyreactivity
QVQLVESGGGLDQAGGSLRLSGAASGSIFDNAMGWYSQAPGKERELVAAITSGGITNYADSVKGRFTISRDNAKNTVYLQMNSLKPEDTAVYYCNTLSPTQTKYDYWGQGTQVTVSS | low polyreactivity
QVQLVESGGGLDQAGGSLRLSSAASGRTFYYYAMGWYRKAPGKERELVAAITRSGGSTYYADSVKGRFTISRDNAKNTFYLQMNSLKPEDTAVYYCAVQVRPNSGGTRIHRGGYDYWGQGTQVTVSS | low polyreactivity
QVQLVESGGGLDQAGGSLRLSWAASGFTFVPYAMGWYRQAPGKERNLVARITGGGGNTYYADSVKGRFTISRDNAKNTVYLQMISLKPEDTAVYYCAADYTNWKTCSNEMYYWGQGTQVTVSS | low polyreactivity
QVQLVESGGGLDQAGGSLRLSWAASGGIFIYNAMGWYRQPPGKEREVVAAINISGGNTYYADSVKGRFTISRDNAKNTVYLQMNSLKPEDTAVYYCAARYASSWWIRYYFWGQGTQVTVSS | high polyreactivity
QVQLVESGGGLDQAGGSLRLTCAASGFTFTIYAMGWYRQAPGKERELVATISGRAGRTYYADSVMGRFTISRDNAKNTVSLQMTSLKPEDTAVYYCNAGQWRYPGLYYYWGQGTQVNVSS | high polyreactivity
QVQLVESGGGLDQAGGSLRLTCAASGNTFRSYAMGWSRQAPGKEREFVAAISLSGGNTYYADSVKGRFTISRDNAKNTVYVQMNSLKPEDTAVYYCAADYEYSGYGYWGQGTQVTVSS | high polyreactivity
QVQLVESGGGLDQAGGSLRLTCAASGSTFYLYDMGWYRQAPGKERELVAVISWSGGSTSYADSVKGRFTISSDNAKNTVYLHMNSLTPEDTAVYYCAAAIGVYYIDYRYLGTVEYWGQGTQVTVSS | low polyreactivity
QVQLVESGGGLDQAGGTLRISCAASGSIFAPNAMSWNRQAPGKERELVAAITYSGTSTYADSVKGRFTISRDNAKNTVYLQMNSLKPEDTAVYYCAAEGSGVYYHSYDYWGQGTQVTVSS | low polyreactivity
QVQLVESGGGLDQAGRSLRLSCAASGLIFTDYTMGWYRQAPGKERELVATISTGGRTFYADSVKGRFTISRDNAKNTVYLQMNSLKPEDTAVYYCAKDQPGRAGFLFTPGLVDYDYWGQGTQVTVSS | low polyreactivity
QVQLVESGGGLDQARGSLRLSCAASGRTFWTNVMGWYRQAPGKERELVAAITSSTDSTYYADSVKGRFTISLDNAKNTVYLQMNSLKPEDTAVYYCATVVRLYRGRYRYDYWGQGTQVTVSS | high polyreactivity
QVQLVESGGGLDQARGSLRLSCAASGSIFWKYAMGWYRQAPWKERELVAAISRSSSTTYYADSVKGRFTISRDNAKNTVYLQMNSLKPEDTAVYYCAAYYRSRVSDDYWGQGTQVTVSS | high polyreactivity
QVQLVESGGGLDQARGSLRLSCAASGSTLAVYAIGWYRQAPGKEREFVAAISWSGVSTYYADSVKGRFTISLDNAKNTVYLQMNSLKPEDTAVYDCAAKRVRALYGGSEGGYWGQGTQVTVSS | low polyreactivity
QVQLVESGGGLDQSGGSLRISCAASGSTFYRNAMGWYRQAPGKEREFVAAITTDDSTYYADSVKGRFTISRDNAKNTVYLQMNSLKPEDTAVYYCAAGLEGKATWAAVGGYDYWGQGTQVTVSS | low polyreactivity
QVQLVESGGGLFHAGGRLRLSCAASGRIFGRYDMGWSIQAPGKERELVASISTGGGGTYYADSVKGRFTISRDNAKNTVYLQMNSLKPEDTAVYYCAKAWRGFWTKYDYWGQGTQVTVSS | low polyreactivity
QVQLVESGGGLFHAGGSLRLSCAASGRIFYNYAMGWSRQAPGKERELVAAISGSGGSTYYADSVKGRFTISRDNAKNTVYLQMNSLKPDDTAVYYCSTSGPQYYSRNFDYWGQGTQVTVSS | low polyreactivity
QVQLVESGGGLFHAGGSLRLSFAASGSILYNAMGWYRQAPGKERELVAAIDSTSVDTYYADSVKGRFTISRDNAKNTVYLQMNSLKPEDTAVYYCSADYVYDDEGDFWGQGTQVTVSS | high polyreactivity
QVQLVESGGGLFKAGGSLRLSCAASGSIFRYYTMGWYRQAPGKERELVAAINGSGGSTYYADSVKGRFTISRDNAKNTVYLQMNSLKPEDTAVYYCNRVTKEYGLRQYYYWGQGTQVTVSS | low polyreactivity
QVQLVESGGGLFQAGGSLRISCAASGRTFWYYAMGWYRPAPGKERELVAAITRGTSTYADSVKGRYTISRDNAKNTVYLQMNSLKPEDTAVYYCATYFRVWYRSYDYWGQGTQVTVSS | high polyreactivity
QVQLVESGGGLFQAGGSLRLICAASGFIFGWYDMGWYRQAPGKERELVAAIDSGGSTNYADSVKGRFTISRDNAKYTVYLQMNSLKPEDTAVYYCAADHHDVWTEYYYWGHGTQVTVSS | low polyreactivity
